Ends that are not written are not given here.

In one test the target is T1, sHLA-E*01:03 (Homo sapiens, UniProt P13747).
T1 construct: A soluble construct of HLA-E*01:03 was constructed by removing the transmembrane and cytoplasmic domains; expressed in transfected cells; host or cells: human U-373MG cells, uninfected or infected with CMV strain AD169
Put plainly: Identification of peptides eluted from soluble HLA-E of CMV-infected vs uninfected U-373MG cells by immunoaffinity purification and LC-MS/MS. In kind it is binding.

For the next test, the target named is T2, CD94-NKG2C (Homo sapiens, UniProt P13747+P26717+Q13241).
T2 construct: a linker into which cDNA encoding the extracellular domain of type II membrane proteins is inserted; Flag (N); CD8 leader (N); made in house; host or cells: 293T cells for the Fc fusion proteins; mouse RMA-S transfectants for HLA-E and B2M
T2 sequence (Q13241 32-179): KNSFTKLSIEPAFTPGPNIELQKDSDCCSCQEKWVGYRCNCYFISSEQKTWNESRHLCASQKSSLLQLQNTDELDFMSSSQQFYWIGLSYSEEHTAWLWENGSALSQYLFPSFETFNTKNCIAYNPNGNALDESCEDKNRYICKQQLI
T2 sequence (P61769 21-119, further chain): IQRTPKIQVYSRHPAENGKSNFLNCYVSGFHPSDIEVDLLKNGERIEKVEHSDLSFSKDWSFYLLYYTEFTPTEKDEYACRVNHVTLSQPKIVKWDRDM
T2 sequence (P13747 22-358): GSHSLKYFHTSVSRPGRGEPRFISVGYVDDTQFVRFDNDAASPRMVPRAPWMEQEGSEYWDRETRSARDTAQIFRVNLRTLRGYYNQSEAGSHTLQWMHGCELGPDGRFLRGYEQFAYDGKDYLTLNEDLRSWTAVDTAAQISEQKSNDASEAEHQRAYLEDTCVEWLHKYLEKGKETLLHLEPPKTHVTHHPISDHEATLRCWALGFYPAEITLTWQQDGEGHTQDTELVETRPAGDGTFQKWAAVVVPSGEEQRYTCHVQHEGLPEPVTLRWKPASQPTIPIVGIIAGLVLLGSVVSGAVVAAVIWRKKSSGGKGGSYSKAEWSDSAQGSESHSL
T2 sequence (P26717 94-231): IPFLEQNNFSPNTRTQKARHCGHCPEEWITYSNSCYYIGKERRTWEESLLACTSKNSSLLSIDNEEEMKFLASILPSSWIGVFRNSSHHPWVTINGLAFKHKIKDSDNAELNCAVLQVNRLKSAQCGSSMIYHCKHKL
Particulars: peptide bound to HLA-E; cited from earlier work.

The next test deals with T3, CD94-NKG2A (Homo sapiens, UniProt P13747+P26715+Q13241).
T3 construct: a linker into which cDNA encoding the extracellular domain of type II membrane proteins is inserted; Flag (N); CD8 leader (N); made in house; host or cells: 293T cells for the Fc fusion proteins; mouse RMA-S transfectants for HLA-E and B2M
T3 sequence (P61769 21-119): as the sequence (P61769 21-119, further chain) above
T3 sequence (P26715 94-233): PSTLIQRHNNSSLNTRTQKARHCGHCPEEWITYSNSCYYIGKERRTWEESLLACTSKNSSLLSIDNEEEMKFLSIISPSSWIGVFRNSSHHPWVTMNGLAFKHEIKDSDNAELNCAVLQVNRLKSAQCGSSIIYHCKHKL
T3 sequence (P13747 22-358): as the sequence (P13747 22-358) above
T3 sequence (Q13241 32-179): as the sequence (Q13241 32-179) above
Particulars: peptide bound to HLA-E; cited from earlier work.

Setting [1] is: number of spectra found for the HCMV peptide listed as HLA-E ligand (Table 1).
Where [2] appears, read: number of spectra for the peptide, LC-MS/MS identification of HLA-E ligands (Table 1).

For the sequence APSQKSKRSVTVEQPSTSADGSN (7), the “# Spec” value with sHLA-E*01:03 (setting [1]) was 21.
The same measure, in the same setting: as for AQGDDDVWTSGSDSDEELVTTER (85), the figure is 393; as for ARERGEFGDEDEEQEND (22), 351.
For the sequence ARERGEFGDEDEEQENDGEPR (21), in the test with sHLA-E*01:03 (setting [1]), the “# Spec” value is given as 351.
As for DDDVWTSGSDSDEELVTTER (87), the “# Spec” value with sHLA-E*01:03 (setting [1]) amounted to 396.
The same measure, in the same setting: as for EAGGVGGSSGGGGGSGLLPAKRS (55), the figure is 1211; as for GPGLDNDLMNEPMGLGGLGGGGGGGGKKH (43), 312.
Same read-out and setting: next, HRHLPVAD (82): 139; “MDGDVRTAADISSTER (63) (MDGDVRTAADISSTLR)”: 519; PATLTAYDK (57): 572.
The same measure, in the same setting: as for PNTYIHKTETD (60), the figure is 221; as for PTYDELPSRPPQ (4), 730.
In the case of PVTGEDTFSAHGKSD (52), in the test with sHLA-E*01:03 (setting [1]), the “# Spec” value is 615.
On the same count and under the same terms, next, RSVTVEQPSTSAD (9): 28.
Take SASSATACTSGVMT: the “# Spec” value in the test with sHLA-E*01:03 (setting [2]) amounted to 439.
On the same count and under the same terms, as for SASSATACTSGVMTR, the figure is 439; as for SDEELVTTER, 406.
With SQKSKRSVTVEQPSTSAD (8), the “# Spec” value with sHLA-E*01:03 (setting [1]) is reported as 23.
On the same count and under the same terms, as for SSVSGVRTPR (17) (also: PTM present), the figure is 2.
On the same count and under the same terms, as for SVPAPRPSPISTAST (72), the entry is “$35”; as for SVTVEQPSTSA (12), 29.
As for VLGPISGHV (78), the “# Spec” value with sHLA-E*01:03 (setting [1]) came out at 14.
On the same count and under the same terms, next, VLGPISGHVLK (79): 14.
VMAPRTLFL [HLA-G leader peptide]: in the test with CD94-NKG2C, the “binding of HLA-E/peptide to CD94-NKG2C” value is “bind both CD94-NKG2A and CD94-NKG2C (albeit with low affinity)”. Besides, the “binding of HLA-E/peptide to CD94-NKG2A” value in the test with CD94-NKG2A was “bind both CD94-NKG2A and CD94-NKG2C (albeit with low affinity)”.
With VRTAADISSTLR (67), the “# Spec” value with sHLA-E*01:03 (setting [1]) is 2.
On the same count and under the same terms, as for VRTAADISSTLRSVPAPRPSP (66), the figure is 3; as for VRTAADISSTLRSVPAPRPSPISTA (68), 3; as for VTFEFVPNTK (46), 419.
VTGGGAMAGASTSAGR: in the test with sHLA-E*01:03 (setting [2]), the “# Spec” value is on record as 420.
On to VTVEQPSTSAD (13), for which, in the test with sHLA-E*01:03 (setting [1]), the “# Spec” value was 30.
In the case of VWTSGSDSDEELVTTE (91), in the test with sHLA-E*01:03 (setting [1]), the “# Spec” value is listed as 399.
